# Reference: paper PMC3042951 (The journal of physical chemistry. B, 2010)
# B1: native human LysRS (70–584) T285C (enzyme)
# chain: not shown
# Target: the molecule itself
# Assay: cross-linking
protein,measurement,value
B1,stoichiometry N,2
